Results from the nanobody polyreactivity screen of Harvey et al. (2022).

Experiment: yeast display, Sf9 membrane polyspecificity reagent, FACS + sequencing; frameworks hold sequencing errors
In short: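 Using colony PCR, genes from sorted yeast display clones were amplified, then sequenced on MiSeq at 2 × 250 and filtered by CDR length. The clones had been stained with 10% biotinylated, detergent-solubilized Sf9 membrane reagent for 1 hour at 4 °C and sorted by FACS into low and high (top ~1%) gates on anti-HA and streptavidin fluorescence. Polyreactivity labels come from the gate of origin.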
In the case of “QVQLVDSGGGLVQAGGTLRLSCAASGRTIRYNAMAWYRQAPGKERELVAAITGSGGSTYYADSVKGRFTISRDNAKNTVYLQMNSLKPEDTAVYYCARDGYLVYYYDWSYPYDSWGQGTQVTVSS”, the “polyreactivity (PSR sort gate)” value is reported as “low polyreactivity”. For “QVQLVDSGGGLVQAGGTLRLSCGASGLIFYLYAMGWFRQAPGKERELVAAITYSGGSTRYADSVKGRFTISRDNAKNTVYFQKNSLKPEDTAVYYCNAAGTAPTELDYWGQGSQVTVSS”, the “polyreactivity (PSR sort gate)” value was “low polyreactivity”. For “QVQLVDSGGGLVQAGGTLSLSCAASGRTFWWYARGWSRQAPGTERELVDAITNFGSTNYADSVKGRFSISRDNAKNTVYLQKNSLKPEDTAVYYCAALTRCWYGGFYQYYYLGQGTQVTVSS”, the “polyreactivity (PSR sort gate)” value was “high polyreactivity”. For “QVQLVDSGGGLVQAGPSLRLSCAASGSTFYLYAMGWYRQAPGKERELVAAITFRGSRTYYADSVKGRFTISRDNAKNTVYFQMNSLKPEDTAVYYCAADSYIERAYGSLGVWRYDYWGQGTQVTVSS”, the “polyreactivity (PSR sort gate)” value was “low polyreactivity”. In the case of “QVQLVDSGGGLVQAGVSLRLSCAASGSIFLLNAMGWYRQATGKERELVAAISWGGGSTYYADSVKGRFTISRDNAKNTVYLQMNSLKPEDTAVDYCNASVTLGQEVDYWGLGTQVTVSS”, the “polyreactivity (PSR sort gate)” value is reported as “low polyreactivity”. In the case of “QVQLVDSGGGLVQEGGSLRLSCAASGSIFLIYAMGWYRQAPGKERELVAAITGGGTTNYADSVKGRFTISRDNAKNTVYLQMNSLKPEDTAVYYCNTLYLVYLYWTSPTPSDLFDYWGQGTQVTVSS”, the “polyreactivity (PSR sort gate)” value is reported as “low polyreactivity”. With “QVQLVDSGGGLVQSGGILRLSCAASGRTFRYYAMGSYRQAPGKERELVAAISSGGSTNYADSVKGRFTISRDNAKNTVYLQMNSLKPEDTAVYYCAALWSGNKFKYWGQGSQVTVSS” the “polyreactivity (PSR sort gate)” value was “low polyreactivity”. In the case of “QVQLVDSGGGLVQSGGSLSLSCAASGFNFWPYAMGWYREAPGKEREFVAAITRTGGSTSYADSVKGRFTISRDNAKNTVYLQINSLKPEDTAVYYCAATSYYRTNYGLVFQYRRNYGGQGTQVTVSS”, the “polyreactivity (PSR sort gate)” value is reported as “high polyreactivity”. For “QVQLVDSGGRLLQAGGSLRLSSAASGLIFKRYAMGWYIQAPGKERELDAAITSGSSTNYADSVKGRFTISRDNAKNTVYLQMNSLKPEDTAVYYCARDVYFSPYYRRSFQWRFDYWGQGTQVTVSS”, the “polyreactivity (PSR sort gate)” value was “high polyreactivity”. In the case of “QVQLVDSGGRLVQAGGRLRLTCAASGFILSYNMGWYRQAPGKERELVATISYNDVSTYYADSVKGRFTISRDNAKNTVYLQMNSLKPEDTAVDYCNAQFPIITRRGYDYWGQGTQVNVSS”, the “polyreactivity (PSR sort gate)” value is reported as “high polyreactivity”. For “QVQLVDSGGRLVQAGGSLRLSCSASGIIIPSYAMGWYRQAPGKERELVAAISGRGGRTYYSDSVKGRFTISRDNAKNSVYLQMNSLKPEDTAVYYCAASGTSSSRKSYYWGQGTQVTVSS”, the “polyreactivity (PSR sort gate)” value was “high polyreactivity”. With “QVQLVDSGGVLVQAGGSLRLSCAASGGTFRTYAMGWYRQAPGKERELVAAITWRGGSTYYADSVKGRFTISRDNAKNTVYLQMNSLKPEDTAVYNCAARVAYQWSFYKYDYWGQGTQVTVSS” the “polyreactivity (PSR sort gate)” value was “high polyreactivity”. For “QVQLVDSGGVLVQAVGSLRLSCAASGLIFYSNAMGWYRQAPGKERELVATISWSGGSTYYADSVKGRFTSSRDNAKNTVYLQMNSLTPEDTAVYYCAAVTHPAWAVEYDYWGQGTQVTVSS”, the “polyreactivity (PSR sort gate)” value was “high polyreactivity”. With “QVQLVDSGRGLVQAGGSLRLSCAASGSIFGKYAMGWYREAPGKERELVAAISKGGGRTSYADSVKGRFTISRDNAKNTVYLQMNSLKPEDTAVYYCNVAQNYWAGLYDYWGQGTQVTVSS” the “polyreactivity (PSR sort gate)” value was “high polyreactivity”. For “QVQLVDSGVGLVQAGGSLRLSCAASGRTFTTNTKGWYRDATWKERELVAAITWSGASTYYADSVKGRFTISRDNAKNTVYLQMNSLKPEDTAVYYCAAERTPSYRAYDYWGQGTQVTVSS”, the “polyreactivity (PSR sort gate)” value was “low polyreactivity”. In the case of “QVQLVDSVGGLVEAGGILRLSCAASGNTFGRNAMGWYRQEPGKESELVAAISFSGSRPYYADSVKGRFTISRDNAKYTVYLQRNSLKPEDTAVYYCNKRGADWTGFFYYQYDFWGQGTQVTVSS”, the “polyreactivity (PSR sort gate)” value is reported as “low polyreactivity”. With “QVQLVDTGGGLVQAGGSLRLSCSASGSNFEYNDMVWYRHAHGKERELVAAISSGGDTNYADSVKGRFTISRDNAKNTVYLQKNSLKAEDTAVYYCNAEGLILYDYWGQGTQVTVSS” the “polyreactivity (PSR sort gate)” value was “low polyreactivity”. With “QVQLVEAAGGLVQAGGSLRLSCAASGSIFRNNAMGWYSPAPGKARELVAVISRRSGNTYYADSVKGRLTISRENAKNPVYLLMNSLKPEDSAVYYCAADYSNSSIRGDYWGQGTEVTVSS” the “polyreactivity (PSR sort gate)” value was “low polyreactivity”. For “QVQLVEACGGLVQAGGSLRLSCAASRSIFPYNAMGWYRQAPGKDRELVATMSSGGSTNYADSVKGRFTISRDNAKNTVYLQKNSLKPEDTAVYYCNAEAAYYPLWMDYWGQGTQVTVSS”, the “polyreactivity (PSR sort gate)” value was “low polyreactivity”. In the case of “QVQLVEAGGGFVQAGGRLRLSCAASGSIFTLNTRGWYSPAPGKEREWVAAMTGSGGITYSADSVKGRFTISRDKAKKTVYLQLNSLKPEETAVYYCAADTGYVHAGYWGQGTQVTVSS”, the “polyreactivity (PSR sort gate)” value is reported as “low polyreactivity”. For “QVQLVEAGGGFYQPGGSLRLSCAASGRTFSYYASGWYRQAPGKERELVAAITDSGDSTYYADSVKGRFTISRDNANNTVYLQMKSLKPEDTAVYDCAATTYSWYDYWGQGTQVTVSS”, the “polyreactivity (PSR sort gate)” value was “high polyreactivity”. With “QVQLVEAGGGLVQAGGSLRLSCAASGLIIAKYAMGWYRQAPGKERELVAGITSGGGTSYADSVKGRFTISRDNAKNTVYLQMNSLKPEDTAVNYCNAVVVGWFYQYDYWGQGTQVTVSS” the “polyreactivity (PSR sort gate)” value was “low polyreactivity”. In the case of “QVQLVEAGGGLVQAGGSLRLSCAASGNIFLYYAMGWYRQAPGKEREFVADIDSSGASTYYADSVKGRFTISRDNAKNTVYLQMNSLKPEDTAVYYCAAEFHWWYAGYDYGYWGQGTQVTVSS”, the “polyreactivity (PSR sort gate)” value is reported as “low polyreactivity”. In the case of “QVQLVEAGGGLVQAGGSLRLSCAASGRTFYQNAMGWNIQAPGKERELVAAISRSGGSTYYADSVKGRFTISRDNAKITVYLQMTSLKPEDTAVYYCAADPRSYGGGYDYWGQGTQVTVSS”, the “polyreactivity (PSR sort gate)” value is reported as “high polyreactivity”. With “QVQLVEAGGGLVQAGGSLRLSCAASGSIFVGNAMGWYRQAPGKERELVAAISSSGGRKFYADSVKGRFTISRDNAKNTVYLQMISLKPEDTAVYYCAAVYTHWQQRMDYWGQGTQVTVSS” the “polyreactivity (PSR sort gate)” value was “high polyreactivity”. For “QVQLVEAGGGLVQAGGSLRLSCAASGSTFPYYTMGGYRQAPGKDRELVAAITWRGGRTYYADSVKGRFTISRDNAKNTVYLQMNSLKPEDTAVYYCAAKQKHTQQTGWKYEYWGQGTQVTVSS”, the “polyreactivity (PSR sort gate)” value was “high polyreactivity”. With “QVQLVEAGGGLVQAGGSLRLSCAASGSTFRWNAMGWYRQAPGKERELVAAITRSGGSTYYADSVKGRFTISRDNAKNTFYLQMNSLKPEDTAVYYCAAGYFTARRIRYDYWGQGTQVTVSS” the “polyreactivity (PSR sort gate)” value was “high polyreactivity”. With “QVQLVEAGGGLVQAGGSLRLSCAASGSTFYKNAMGWYRPAAGKERELVAGISRRGGPTYYADSVKGRFTISRDKAMNTVYLQMNSLNPEDTAVYYCNTGHEEDEYDYWGQGTQVTVSS” the “polyreactivity (PSR sort gate)” value was “low polyreactivity”. In the case of “QVQLVEAGGGLVQAGGSLRLSCADCVSTGVNTMGWYRQAPGKERELVDAIRATGGSTYYADSVKGRFTISRDNAKNTVYLQMNSLKPEDTAVYYCAAKWFRLYLRQDRYYYWGQGTQVTVSS”, the “polyreactivity (PSR sort gate)” value is reported as “high polyreactivity”. In the case of “QVQLVEAGGGLVQAGGTLRLSCAASGYTFIYYAMGWYRQAPGKERELVATISIDGSTNYADSVKRRFTISRDNAKNTVYLQMNSLKPEDTAVYYCNRERYEDYDYWGQGTQVTVSS”, the “polyreactivity (PSR sort gate)” value is reported as “high polyreactivity”.
